The values that follow come from patent publication US20190023793A1 (Innovent, published 2019).

The target in one experiment is T1, PD-L2 (human) (human, UniProt Q9BQ51 20-219, limits assumed).
T1 construct: also called PD-L1 family members
T1 sequence (looked up): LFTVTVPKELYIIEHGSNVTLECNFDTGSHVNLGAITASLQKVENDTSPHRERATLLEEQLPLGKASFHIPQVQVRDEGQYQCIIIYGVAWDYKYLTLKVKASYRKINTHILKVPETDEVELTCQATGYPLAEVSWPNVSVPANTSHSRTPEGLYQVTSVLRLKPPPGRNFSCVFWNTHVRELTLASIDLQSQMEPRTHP
The experiment is described as follows: ELISA, antigen coated at 0.5 µg per well, biotinylated nanobody, streptavidin-HRP. The procedure:
(§1) (2) The antigen proteins PD-L1 (human), PD-L1 (rat), PD-L1 (monkey), PD-L2 (human), B7H4 (human), B7H3 (human) were coated: 0.5 μg per well (5 μg/mL, 100 μL), IgG1 was coated as a control, left overnight at 4° C.;
(§2) (4) Each biotinylated nanobodies were diluted to 10 μg/mL, and 100 μL of each was incubated in each well and allowed to react at RT for 1 hour.
(§3) (5) The unbound nanobodies were washed with PBST, 100 μL of streptavidin-HRP (1:1000 dilution) was added, and the resultant was let stand for 1 hour at room temperature.

In the next experiment the target is T2, B7H4 (human) (human, UniProt Q7Z7D3 25-258, limits assumed).
T2 construct: also called PD-L1 family members
T2 sequence (looked up): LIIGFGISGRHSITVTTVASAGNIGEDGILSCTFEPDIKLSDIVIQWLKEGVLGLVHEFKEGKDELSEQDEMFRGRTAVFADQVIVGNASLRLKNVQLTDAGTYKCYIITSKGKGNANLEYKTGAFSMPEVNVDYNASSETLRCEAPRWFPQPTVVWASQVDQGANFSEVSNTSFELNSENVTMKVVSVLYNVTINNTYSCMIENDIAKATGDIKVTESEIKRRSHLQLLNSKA
Described as above. As to the method:
as §1, §2, §3

In another experiment the target is T3, B7H3 (human) (human, UniProt Q5ZPR3 29-461, limits assumed).
T3 construct: also called PD-L1 family members
T3 sequence (looked up): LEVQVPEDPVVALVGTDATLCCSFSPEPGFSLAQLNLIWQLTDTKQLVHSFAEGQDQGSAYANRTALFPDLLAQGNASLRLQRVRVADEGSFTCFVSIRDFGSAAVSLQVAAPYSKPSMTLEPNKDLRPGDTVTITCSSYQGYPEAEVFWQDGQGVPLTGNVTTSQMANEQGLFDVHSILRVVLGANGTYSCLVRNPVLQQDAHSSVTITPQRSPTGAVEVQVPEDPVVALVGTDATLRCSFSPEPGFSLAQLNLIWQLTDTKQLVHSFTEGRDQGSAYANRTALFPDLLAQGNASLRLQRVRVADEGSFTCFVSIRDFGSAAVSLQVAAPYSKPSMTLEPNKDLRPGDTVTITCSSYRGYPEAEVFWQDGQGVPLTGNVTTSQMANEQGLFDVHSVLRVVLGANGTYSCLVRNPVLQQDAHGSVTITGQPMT
Described as above. The procedure:
as §1, §2, §3

Experiment [1] has as its target T4, PD-L1 (human) antigen protein (human, UniProt Q9NZQ7 19-238, limits assumed).
T4 construct: also called human PD-L1; immobile phase antigens
In words: SPR, BiaCore T200, antigen immobilized on CM-5 chip, nanobody in five concentrations. As to the method:
BiaCore T200 was used for detection. (1) Immobilization: The immobile phase antigens were immobilized on the surface of a CM-5 sensor chip using a carboxy-amino reaction;
(2) Binding: The nanobodies were diluted with HBS buffer to an appropriate concentration (five concentration gradients) to observe the antigen-nanobody binding process;
(4) Analysis of the experimental results.

T4 sequence (Q9NZQ7 19-238 limits assumed): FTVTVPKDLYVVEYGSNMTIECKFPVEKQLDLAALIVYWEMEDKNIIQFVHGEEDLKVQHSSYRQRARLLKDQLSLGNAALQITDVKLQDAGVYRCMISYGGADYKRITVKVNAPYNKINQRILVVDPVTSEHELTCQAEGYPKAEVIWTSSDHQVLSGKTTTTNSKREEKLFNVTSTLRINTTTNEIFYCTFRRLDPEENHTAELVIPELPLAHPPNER

B1: PD-L1 Nb-Fc protein (nanobody before humanization fused to IgG1 Fc) (Fc fusion)
chain: QVQLQESGGGSVQAGGSLRLSCQASAYTISRNSMGWFRQAPGKQREGVAAIESDGSTSYSDSVKGRFTISLGNAKNTLYLEMNSLKPEDTAMYYCAAPKVGLGPRTALGHLAFMTLPALNYWGQGTQVTVSS
notes: also called PD-L1 nanobodies; nanobodies before humanization; not shown: IgG1 Fc encoded by the pFUSE-IgG1 vector (Invivogen)
For B1, the binding result with PD-L2 (human), with B7H4 (human) and with B7H3 (human) was “no binding (tested: 10 µg/mL)” throughout. Besides, the Kd in experiment [1] stood at 2.34 nM.

B2: humanized PD-L1 nanobody with Fc tag (humanized Nb-Fc) (Fc fusion)
chain: QVQLQESGGGLVQPGGSLRLSCAASAYTISRNSMGWFRQAPGKGLEGVAAIESDGSTSYSDSVKGRFTISLDNSKNTLYLEMNSLRAEDTAVYYCAAPKVGLGPRTALGHLAFMTLPALNYWGQGTLVTVSS
notes: also called humanized PD-L1 nanobodies; humanized nanobodies; not shown: IgG1 Fc encoded by the pFUSE-IgG1 vector (Invivogen)
As for B2, the binding result in the experiment with PD-L2 (human), in the experiment with B7H4 (human) and with B7H3 (human) was “no binding (tested: 10 µg/mL)” throughout. In experiment [1], the dissociation constant (Kd) stood at 2.26 nM.
